Data: the supplement of paper PMC12338614
± gives the uncertainty stated by the source.

B1: library; numbered along this chain (parent)
chain: MEVVDPQQLGMFTEGELMSVGMDTFIHRIDSTEVIYQPRRKRAKLIGKYLMGDLLGEGSYGKVKEVLDSETLCRRAVKILKKKKLRRIPNGEANVKKEIQLLRRLRHKNVIQLVDVLYNEEKQKMYMVMEYCVCGMQEMLDSVPEKRFPVCQAHGYFCQLIDGLEYLHSQGIVHKDIKPGNLLLTTGGTLKISDLGVAEALHPFAADDTCRTSQGSPAFQPPEIANGLDTFSGFKVDIWSAGVTLYNITTGLYPFEGDNIYKLFENIGKGSYAIPGDCGPPLSDLLKGMLEYEPAKRFSIRQIRQHSWFRKKHPPAEAPVPIPPSPDTKDRWRSMTVVPYLEDLHGADEDEDLFDIEDDIIYTQDFTVPGQVPEEEASHNGQRRGLPKAVCMNGTEAAQLSTKSRAEGRAPNPARKACSASSKIRRLSACKQQ

Variants of: B1
Experiment: STK11 functional score (HeLa growth suppression), rescaled enrichment; synonymous median = 1, nonsense median = 0 (normalised score)
Conditions: with HeLa; variant type: missense
Summary of the method: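 In HeLa, Bxb1 integrated POPCode codon-randomised libraries of codon-optimised STK11 at an AAVS1 landing pad; three regions were each transfected three times. Integrants, marked as BFP-negative and mCherry-positive, were FACS-sorted 4–5 days after electroporation and expanded for about two weeks before tiled gDNA amplicons were sequenced on NextSeq (~2 million reads per tile). Each functional score is a post/pre-selection log ratio corrected to wild type, rescaled to the synonymous and nonsense medians, and merged across codons and replicate transfections, with error estimated by bootstrapping.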

Variant | STK11 functional score
G187P | 1.49 ± 0.12
G187W | 1.65 ± 0.13
G187V | 0.795 ± 0.26
G187A | 1.09 ± 0.18
G187R | 0.864 ± 0.65
G187L | 1.27 ± 0.2
G187S | 1.67 ± 0.44
G187T | 1.59 ± 0.4
G187I | 1.62 ± 0.17
L184C | 0.804 ± 0.36
L184Q | 0.906 ± 0.2
L184W | 0.145 ± 0.09
L184D | -0.0783 ± 0.1
L184A | 0.745 ± 0.32
L184R | 0.329 ± 0.17
L184V | 1.01 ± 0.21
L184N | 0.425 ± 0.35
L184M | 0.45 ± 0.16
L184H | 0.93 ± 0.43
L184G | 0.204 ± 0.079
L184P | 0.189 ± 0.18
L184S | 0.61 ± 0.13
L184T | 1.49 ± 0.24
L184F | 0.735 ± 0.078

Variant | STK11 functional score
L184I | 0.978 ± 0.22
P179D | -0.213 ± 0.11
P179G | 0.216 ± 0.078
P179R | -0.0831 ± 0.084
P179Y | 0.059 ± 0.1
P179W | 0.088 ± 0.11
P179T | 0.709 ± 0.13
P179V | 0.541 ± 0.089
P179I | 0.823 ± 0.39
P179A | 0.764 ± 0.091
P179S | 0.562 ± 0.19
P179F | 0.0795 ± 0.09
P179L | 0.376 ± 0.075
P179E | 0.0456 ± 0.13
P179M | 0.544 ± 0.13
P179H | -0.0435 ± 0.096
L183S | 0.646 ± 0.4
L183V | 1.2 ± 0.18
L183H | 1.43 ± 0.24
L183A | 0.587 ± 0.29
L183P | 0.221 ± 0.35
L183D | 0.119 ± 0.32
L183G | 0.551 ± 0.24
L183M | -0.0817 ± 0.087

Variant | STK11 functional score
L183Y | 1.57 ± 0.1
L183R | 0.0747 ± 0.097
L183T | 1.1 ± 0.28
L183E | 0.3 ± 0.082
L183F | 0.885 ± 0.55
A198P | 0.974 ± 0.23
A198S | 0.503 ± 0.23
A198N | 0.745 ± 0.5
A198V | 1.38 ± 0.19
A198R | 0.174 ± 0.098
A198F | 0.731 ± 0.25
A198G | 1.28 ± 0.11
A198T | 1.23 ± 0.13
A198I | -0.192 ± 0.12
A198W | 1.16 ± 0.18
A198H | 1.54 ± 0.13
A198L | 1.13 ± 0.32
A198Y | 1.04 ± 0.51
H202V | 1.27 ± 0.26
H202N | 0.176 ± 0.17
H202W | 0.389 ± 0.18
H202F | 0.754 ± 0.15
H202D | 0.804 ± 0.38
H202A | 1.17 ± 0.49

Variant | STK11 functional score
H202S | 1.17 ± 0.25
H202P | 0.806 ± 0.12
H202T | 0.925 ± 0.22
H202G | 1.3 ± 0.16
H202E | 1.47 ± 0.23
H202L | 0.766 ± 0.12
H202M | 1.19 ± 0.31
H202I | 1.31 ± 0.21
H202R | 0.161 ± 0.26
T185I | 0.548 ± 0.088
T185F | 0.993 ± 0.24
T185Y | 0.976 ± 0.12
T185P | 0.0618 ± 0.18
T185C | 1.13 ± 0.22
T185L | 1.08 ± 0.32
T185S | 0.939 ± 0.26
T185W | 0.387 ± 0.09
T185N | 0.509 ± 0.18
T185G | 0.548 ± 0.091
T185V | 0.913 ± 0.25
T185R | 0.992 ± 0.21
T185H | 0.484 ± 0.13
T185D | 0.415 ± 0.37
G196A | 0.488 ± 0.5

Variant | STK11 functional score
G196V | 1.08 ± 0.12
G196R | -0.0503 ± 0.77
P203H | 0.686 ± 0.62
P203L | 1.27 ± 0.73
P203S | 1.68 ± 0.46
P203R | 1.01 ± 0.65
P203A | 0.904 ± 0.61
L190V | 1 ± 0.28
L190W | 0.118 ± 0.15
L190R | 0.223 ± 0.19
L190I | 1.04 ± 0.35
L190P | 0.0599 ± 0.15
L190S | 0.0644 ± 0.18
L190F | 0.343 ± 0.17
L190M | 1.21 ± 0.18
L190G | 0.073 ± 0.17
L190D | -0.215 ± 0.095
L190Y | 0.0792 ± 0.094
L190A | 0.537 ± 0.49
L201M | 0.914 ± 0.17
L201A | 1.59 ± 0.23
L201H | 1.16 ± 0.3
L201E | 0.334 ± 0.27
L201G | 0.745 ± 0.38

Variant | STK11 functional score
L201W | 0.55 ± 0.12
L201D | 0.769 ± 0.11
L201K | 1.64 ± 0.14
L201F | 0.797 ± 0.33
L201C | 1.12 ± 0.33
L201V | 0.808 ± 0.096
L201T | 1.2 ± 0.26
L201P | 1.36 ± 0.18
L201R | 0.929 ± 0.2
L201N | 1.19 ± 0.12
L201S | 0.759 ± 0.098
L201I | 1.48 ± 0.3
S193E | 1.54 ± 0.33
S193A | 0.853 ± 0.12
S193M | 0.111 ± 0.094
S193T | 1.22 ± 0.22
S193C | 0.963 ± 0.17
S193I | 1.17 ± 0.54
S193R | -0.142 ± 0.11
S193F | -0.0251 ± 0.091
S193L | 0.696 ± 0.12
S193W | 0.0192 ± 0.15
S193Y | -0.104 ± 0.094
S193N | 1.61 ± 0.2

Variant | STK11 functional score
S193K | 0.0789 ± 0.12
S193G | 0.596 ± 0.24
S193V | 0.77 ± 0.24
S193H | 0.192 ± 0.33
F204C | 0.849 ± 0.29
F204A | 1.03 ± 0.52
F204D | 1.09 ± 0.12
G180L | 1.02 ± 0.094
G180H | 1.65 ± 0.29
G180P | 0.814 ± 0.13
G180N | 1.39 ± 0.47
G180C | 1.09 ± 0.31
G180M | 0.93 ± 0.82
G180I | 1.41 ± 0.39
G180W | 1.44 ± 0.15
G180R | 0.948 ± 0.5
G180V | 0.816 ± 0.089
G180E | 1.09 ± 0.67
G180F | 0.804 ± 0.068
G180Q | 1.64 ± 0.19
G180T | 1.53 ± 0.19
G180A | 1.34 ± 0.32
G180S | 1.14 ± 0.18
